According to patent US20240247080A1, “GLP1/GIP/NPY2 RECEPTOR TRIPLE AGONISTS” (Boehringer Ingelheim International GmbH, priority 2022, published 2024):
Changes are numbered by the printed parent chain. One block for each binder: values may come before it. Starred links: 1 amine or outer side, 2 acyl side, 3 side chain; linkers in the order of their positions; H or OH if unused. Non-standard residues stand in square brackets, D forms with d. Groups on a side chain read outwards from the residue. No end group written: not given here. *: point of attachment. C20 diacid = O=C(O)CCCCCCCCCCCCCCCCCCC(=O)*; C18 diacid = O=C(O)CCCCCCCCCCCCCCCCC(=O)*; γGlu = O=C(O)[C@H](CCC(=O)[*:2])N[*:1]; εLys = N[C@@H](CCCCN[*:1])C(=O)[*:2]; Aib = CC(C)(N)C(=O)O

Key:
Assay in all cases: cell-based or functional assay
human GLP-1 receptor = human GLP-1 receptor (human, UniProt P43220 24-463)
human GIP receptor = molecular target: T1, human GIP receptor (human, UniProt P48546 22-466)
T1 sequence (looked up): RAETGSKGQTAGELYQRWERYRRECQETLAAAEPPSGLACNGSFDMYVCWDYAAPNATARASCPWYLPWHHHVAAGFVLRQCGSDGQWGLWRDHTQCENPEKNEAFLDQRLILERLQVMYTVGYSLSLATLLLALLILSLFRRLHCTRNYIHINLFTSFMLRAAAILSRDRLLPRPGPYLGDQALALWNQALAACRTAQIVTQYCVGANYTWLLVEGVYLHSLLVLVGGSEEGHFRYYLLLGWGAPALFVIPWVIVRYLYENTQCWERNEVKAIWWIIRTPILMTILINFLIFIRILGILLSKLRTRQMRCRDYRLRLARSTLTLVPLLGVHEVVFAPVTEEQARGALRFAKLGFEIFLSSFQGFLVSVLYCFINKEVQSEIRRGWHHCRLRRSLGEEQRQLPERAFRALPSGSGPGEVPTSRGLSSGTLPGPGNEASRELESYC

[1] = molecular target: T2, human neuropeptide Y2 (NPY2) receptor (human, UniProt P49146 1-381)
T2 sequence (looked up): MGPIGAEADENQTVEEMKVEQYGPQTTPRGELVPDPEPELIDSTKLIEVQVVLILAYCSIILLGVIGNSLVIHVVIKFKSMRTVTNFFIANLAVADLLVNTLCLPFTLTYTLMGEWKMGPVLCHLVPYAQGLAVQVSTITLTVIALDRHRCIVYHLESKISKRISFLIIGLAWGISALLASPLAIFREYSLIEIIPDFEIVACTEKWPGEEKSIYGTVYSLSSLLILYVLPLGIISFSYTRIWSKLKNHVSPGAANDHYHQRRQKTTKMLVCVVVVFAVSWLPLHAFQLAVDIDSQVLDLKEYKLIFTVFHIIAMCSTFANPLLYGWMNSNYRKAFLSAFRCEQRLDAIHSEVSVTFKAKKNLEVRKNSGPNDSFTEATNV

EC50, CreLuc assay, 0.5% hP (human GLP-1 receptor): 0.35 nM
EC50, CreLuc assay, 100% hP (human GLP-1 receptor): 23.9 nM
EC50, CreLuc assay, 0.5% hP (human GIP receptor): 0.54 nM
EC50, CreLuc assay, 100% hP (human GIP receptor): 12.4 nM
EC50, CreLuc assay, 0.5% hP [1]: 7.12 nM
EC50, CreLuc assay, 100% hP [1]: 33.5 nM
Binder: Y[Aib]EGTFTSDYSI[Aib]LEKQAQ[Aib]AFVEWLIK([εLys-Glu-γGlu-γGlu-γGlu-γGlu-C20 diacid])GGPSYYVSLRHYYNWLTRQRY-NH2 (also: TFA salt) [Compound 75]

EC50, CreLuc assay, 0.5% hP (human GLP-1 receptor): 0.3 nM
EC50, CreLuc assay, 100% hP (human GLP-1 receptor): 22.2 nM
EC50, CreLuc assay, 0.5% hP (human GIP receptor): 0.28 nM
EC50, CreLuc assay, 100% hP (human GIP receptor): 2.62 nM
EC50, CreLuc assay, 0.5% hP [1]: 16.2 nM
EC50, CreLuc assay, 100% hP [1]: 67.2 nM
Binder: Y[Aib]EGTFTSDYSI[Aib]LEKQAQ[Aib]AFVEWLIK([εLys-γGlu-γGlu-γGlu-γGlu-γGlu-C20 diacid])GGPESPASLRHYYNWLTRQRY-NH2 (also: TFA salt) [Compound 70]

EC50, CreLuc assay, 0.5% hP (human GLP-1 receptor): 0.14 nM
EC50, CreLuc assay, 100% hP (human GLP-1 receptor): 1.13 nM
EC50, CreLuc assay, 0.5% hP (human GIP receptor): 0.13 nM
EC50, CreLuc assay, 100% hP (human GIP receptor): 0.64 nM
EC50, CreLuc assay, 0.5% hP [1]: > 100 nM
EC50, CreLuc assay, 100% hP [1]: > 1000 nM
B2: Compound 71 (peptide)
peptide: YXEGTFTSDYSIXLEKQAQXAFVEWLIKGGPSSGASLRHYYNWLTXQRY
modifications: Aib at 2, 13, 20; hArg 46; DTyr 49; K28 side chain: C20DA-gGlu-gGlu-gGlu-gGlu-gGlu-gGlu-eLys; C-terminal NH2

EC50, CreLuc assay, 0.5% hP (human GLP-1 receptor): 0.12 nM
EC50, CreLuc assay, 100% hP (human GLP-1 receptor): 2.19 nM
EC50, CreLuc assay, 0.5% hP (human GIP receptor): 0.32 nM
EC50, CreLuc assay, 100% hP (human GIP receptor): 2.05 nM
EC50, CreLuc assay, 0.5% hP [1]: 53.9 nM
EC50, CreLuc assay, 100% hP [1]: 139 nM
B4: Compound 68 (peptide)
peptide: B2 peptide with W43R, L44X, X46R
modifications: Aib at 2, 13, 20, 44; K28 side chain: C20DA-gGlu-gGlu-gGlu-gGlu-gGlu-gGlu-eLys; C-terminal NH2

EC50, CreLuc assay, 0.5% hP (human GLP-1 receptor): 0.24 nM
EC50, CreLuc assay, 100% hP (human GLP-1 receptor): 11.6 nM
EC50, CreLuc assay, 0.5% hP (human GIP receptor): 0.64 nM
EC50, CreLuc assay, 100% hP (human GIP receptor): 3.06 nM
EC50, CreLuc assay, 0.5% hP [1]: 18.8 nM
EC50, CreLuc assay, 100% hP [1]: 85.6 nM
B5: Compound 66 (peptide)
peptide: B2 peptide with K16E, Q17E, X46R
modifications: Aib at 2, 13, 20; K28 side chain: C20DA-gGlu-gGlu-gGlu-gGlu-gGlu-gGlu-eLys; C-terminal NH2

EC50, CreLuc assay, 0.5% hP (human GLP-1 receptor): 0.19 nM
EC50, CreLuc assay, 100% hP (human GLP-1 receptor): 4.76 nM
EC50, CreLuc assay, 0.5% hP (human GIP receptor): 0.11 nM
EC50, CreLuc assay, 100% hP (human GIP receptor): 1.61 nM
EC50, CreLuc assay, 0.5% hP [1]: 32.2 nM
EC50, CreLuc assay, 100% hP [1]: 107 nM
B6: Compound 73 (peptide)
peptide: B2 peptide with G34P, A35E, X46R
modifications: Aib at 2, 13, 20; K28 side chain: C20DA-gGlu-gGlu-gGlu-gGlu-gGlu-gGlu-eLys; C-terminal NH2

The remaining lines, values behind:

Binder: Y[Aib]EGTFTSDYSI[Aib]LEKQAQ[Aib]AFVQWLIK([εLys-Glu-Glu-Glu-Glu-Glu-C18 diacid])GGPESGASLRHYYNWLTRQRY-NH2 (also: TFA salt) [Compound 63]
EC50, CreLuc assay, 0.5% hP (human GLP-1 receptor): 0.08 nM
EC50, CreLuc assay, 100% hP (human GLP-1 receptor): 3 nM
EC50, CreLuc assay, 0.5% hP (human GIP receptor): 0.13 nM
EC50, CreLuc assay, 100% hP (human GIP receptor): 0.89 nM
EC50, CreLuc assay, 0.5% hP [1]: 15.2 nM
EC50, CreLuc assay, 100% hP [1]: 74.3 nM

Binder: Y[Aib]EGTFTSDYSI[Aib]LEKQAQ[Aib]AFVQWLIK([εLys-γGlu-γGlu-γGlu-γGlu-γGlu-C20 diacid])GGPESGASLRHYYNWLTRQRY-NH2 (also: TFA salt) [Compound 61]
EC50, CreLuc assay, 0.5% hP (human GLP-1 receptor): 0.11 nM
EC50, CreLuc assay, 100% hP (human GLP-1 receptor): 3.95 nM
EC50, CreLuc assay, 0.5% hP (human GIP receptor): 0.36 nM
EC50, CreLuc assay, 100% hP (human GIP receptor): 0.56 nM
EC50, CreLuc assay, 0.5% hP [1]: 6.25 nM
EC50, CreLuc assay, 100% hP [1]: 37.6 nM

Binder: Y[Aib]EGTFTSDYSI[Aib]LEKQAQ[Aib]AFVEWLIK([γGlu-γGlu-γGlu-γGlu-γGlu-γGlu-C20 diacid])GGGSEYVSLRHYYNWLTRQRY-NH2 (also: TFA salt) [Compound 65]
EC50, CreLuc assay, 0.5% hP (human GLP-1 receptor): 2.65 nM
EC50, CreLuc assay, 100% hP (human GLP-1 receptor): 49.3 nM
EC50, CreLuc assay, 0.5% hP (human GIP receptor): 1.03 nM
EC50, CreLuc assay, 100% hP (human GIP receptor): 15.7 nM
EC50, CreLuc assay, 0.5% hP [1]: 10.9 nM
EC50, CreLuc assay, 100% hP [1]: 24.2 nM

B1: Compound 62 (peptide)
peptide: B2 peptide with S32R, S33Y, G34Y, X46R
modifications: Aib at 2, 13, 20; K28 side chain: C20DA-gGlu-gGlu-gGlu-gGlu-gGlu-gGlu-eLys; C-terminal NH2
EC50, CreLuc assay, 0.5% hP (human GLP-1 receptor): 0.78 nM
EC50, CreLuc assay, 100% hP (human GLP-1 receptor): 9.23 nM
EC50, CreLuc assay, 0.5% hP (human GIP receptor): 0.48 nM
EC50, CreLuc assay, 100% hP (human GIP receptor): 5.35 nM
EC50, CreLuc assay, 0.5% hP [1]: 13.6 nM
EC50, CreLuc assay, 100% hP [1]: 40.5 nM

B3: Compound 8 (peptide)
peptide: B2 peptide with K16E, E24Q, A35Q, X46R
modifications: Aib at 2, 13, 20; K28 side chain: C20DA-gGlu-Glu-gGlu-gGlu-gGlu-gGlu-eLys; C-terminal NH2
EC50, CreLuc assay, 0.5% hP (human GLP-1 receptor): 0.04 nM
EC50, CreLuc assay, 100% hP (human GLP-1 receptor): 1.05 nM
EC50, CreLuc assay, 0.5% hP (human GIP receptor): 0.12 nM
EC50, CreLuc assay, 100% hP (human GIP receptor): 1.72 nM
EC50, CreLuc assay, 0.5% hP [1]: 11.6 nM
EC50, CreLuc assay, 100% hP [1]: 43 nM
